Target: SMN1, wild type, LUMIER fusion, Q16637
Assay: LUMIER
Conditions: chain shown with the change;; parent: est. 51000; read off a plot

Chain of SMN1, wild type, LUMIER fusion, Q16637 (Q16637 whole entry, the tested form may be a part): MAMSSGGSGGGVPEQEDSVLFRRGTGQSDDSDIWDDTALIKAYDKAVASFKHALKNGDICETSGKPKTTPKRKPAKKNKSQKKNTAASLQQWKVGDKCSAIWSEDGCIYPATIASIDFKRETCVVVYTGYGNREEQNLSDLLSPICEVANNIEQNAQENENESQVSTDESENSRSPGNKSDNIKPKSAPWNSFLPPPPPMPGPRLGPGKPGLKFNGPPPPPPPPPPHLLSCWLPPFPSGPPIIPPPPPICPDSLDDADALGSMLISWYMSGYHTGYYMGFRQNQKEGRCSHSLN

- response: 28000 RU
B1: PHF1, wild type, LUMIER fusion, O43189 Y47A (protein)
chain: MAQPPRLSRSGASSLWDPASPAPTSGPRPRLWEGQDVLARWTDGLLALGTIKKVDSAREVCLVQFEDDSQFLVLWKDISPAALPGEELLCCVCRSETVVPGNRLVSCEKCRHAYHQDCHVPRAPAPGEGEGTSWVCRQCVFAIATKRGGALKKGPYARAMLGMKLSLPYGLKGLDWDAGHLSNRQQSYCYCGGPGEWNLKMLQCRSCLQWFHEACTQCLSKPLLYGDRFYEFECCVCRGGPEKVRRLQLRWVDVAHLVLYHLSVCCKKKYFDFDREILPFTSENWDSLLLGELSDTPKGERSSRLLSALNSHKDRFISGREIKKRKCLFGLHARMPPPVEPPTGDGALTSFPSGQGPGGGVSRPLGKRRRPEPEPLRRRQKGKVEELGPPSAVRNQPEPQEQRERAHLQRALQASVSPPSPSPNQSYQGSSGYNFRPTDARCLPSSPIRMFASFHPSASTAGTSGDSGPPDRSPLELHIGFPTDIPKSAPHSMTASSSSVSSPSPGLPRRSAPPSPLCRSLSPGTGGGVRGGVGYLSRGDPVRVLARRVRPDGSVQYLVEWGGGGIF
